The chains are these.
B1: wild type NSP3 (non-structural protein 3) of simian species A rotavirus strain RRV [simian rotavirus A strain RRV] / itself (parent complex)
chain: MESTQQMASSIINSSFEAAVVAATSTLELMGIQYDYNEVYTRVKSKFDLVMDDSGVKNNLIGKAITIDQALNGKFSSAIRNRNWMTDSRTVAKLDEDVNKLRIMLSSKGIDQKMRVLNACFSVKRIPGKSSSIVKCTRLMKDKLERGEVEVDDSFVEEKMEVDTIDWKSRYEQLEKRFESLKHRVNEKYNHWVLKARKVNENMNSLQNVISQQQAHINELQMYNNKLERDLQSKIGSVVSSIEWYLRSMELSDDVKSDIEQQLNSIDQLNPVNAIDDFESILRNLISDYDRLFIMFKGLLQQCNYTYTYE

The variants in the experiment derive from B1. The experiment is described as follows: non-dissociating Western blot (WB-ND) densitometry; parent: 1; read off a plot.
Regarding chain 1 K168E, the ratio to parent was approximately 0.32.

Take chain 1 R170E: the ratio to parent is approximately 0.17.

As for chain 1 R184E, chain 1 K188E, the ratio to parent is approximately 0.13.

As to chain 1 Y189A, the ratio to parent was approximately 1.8.

These data come from publication PMC5524322, “Species A rotavirus NSP3 acquires its translation inhibitory function prior to stable dimer formation” (PLoS ONE, 2017).
